The target of test [1] is Phosphodiesterase I, 3',5'-cyclic-nucleotide-specific (PDE) (bovine) (UniProt P14100).
The target in test [2] is Calcineurin (PPase-2B, CaN) (bovine).
Test [3] addresses Myosin light chain kinase (MLCK), human, recombinant, GST-tagged (human) (UniProt Q15746).

Sequence of Myosin light chain kinase (MLCK), human, recombinant, GST-tagged (human) (Q15746 whole entry): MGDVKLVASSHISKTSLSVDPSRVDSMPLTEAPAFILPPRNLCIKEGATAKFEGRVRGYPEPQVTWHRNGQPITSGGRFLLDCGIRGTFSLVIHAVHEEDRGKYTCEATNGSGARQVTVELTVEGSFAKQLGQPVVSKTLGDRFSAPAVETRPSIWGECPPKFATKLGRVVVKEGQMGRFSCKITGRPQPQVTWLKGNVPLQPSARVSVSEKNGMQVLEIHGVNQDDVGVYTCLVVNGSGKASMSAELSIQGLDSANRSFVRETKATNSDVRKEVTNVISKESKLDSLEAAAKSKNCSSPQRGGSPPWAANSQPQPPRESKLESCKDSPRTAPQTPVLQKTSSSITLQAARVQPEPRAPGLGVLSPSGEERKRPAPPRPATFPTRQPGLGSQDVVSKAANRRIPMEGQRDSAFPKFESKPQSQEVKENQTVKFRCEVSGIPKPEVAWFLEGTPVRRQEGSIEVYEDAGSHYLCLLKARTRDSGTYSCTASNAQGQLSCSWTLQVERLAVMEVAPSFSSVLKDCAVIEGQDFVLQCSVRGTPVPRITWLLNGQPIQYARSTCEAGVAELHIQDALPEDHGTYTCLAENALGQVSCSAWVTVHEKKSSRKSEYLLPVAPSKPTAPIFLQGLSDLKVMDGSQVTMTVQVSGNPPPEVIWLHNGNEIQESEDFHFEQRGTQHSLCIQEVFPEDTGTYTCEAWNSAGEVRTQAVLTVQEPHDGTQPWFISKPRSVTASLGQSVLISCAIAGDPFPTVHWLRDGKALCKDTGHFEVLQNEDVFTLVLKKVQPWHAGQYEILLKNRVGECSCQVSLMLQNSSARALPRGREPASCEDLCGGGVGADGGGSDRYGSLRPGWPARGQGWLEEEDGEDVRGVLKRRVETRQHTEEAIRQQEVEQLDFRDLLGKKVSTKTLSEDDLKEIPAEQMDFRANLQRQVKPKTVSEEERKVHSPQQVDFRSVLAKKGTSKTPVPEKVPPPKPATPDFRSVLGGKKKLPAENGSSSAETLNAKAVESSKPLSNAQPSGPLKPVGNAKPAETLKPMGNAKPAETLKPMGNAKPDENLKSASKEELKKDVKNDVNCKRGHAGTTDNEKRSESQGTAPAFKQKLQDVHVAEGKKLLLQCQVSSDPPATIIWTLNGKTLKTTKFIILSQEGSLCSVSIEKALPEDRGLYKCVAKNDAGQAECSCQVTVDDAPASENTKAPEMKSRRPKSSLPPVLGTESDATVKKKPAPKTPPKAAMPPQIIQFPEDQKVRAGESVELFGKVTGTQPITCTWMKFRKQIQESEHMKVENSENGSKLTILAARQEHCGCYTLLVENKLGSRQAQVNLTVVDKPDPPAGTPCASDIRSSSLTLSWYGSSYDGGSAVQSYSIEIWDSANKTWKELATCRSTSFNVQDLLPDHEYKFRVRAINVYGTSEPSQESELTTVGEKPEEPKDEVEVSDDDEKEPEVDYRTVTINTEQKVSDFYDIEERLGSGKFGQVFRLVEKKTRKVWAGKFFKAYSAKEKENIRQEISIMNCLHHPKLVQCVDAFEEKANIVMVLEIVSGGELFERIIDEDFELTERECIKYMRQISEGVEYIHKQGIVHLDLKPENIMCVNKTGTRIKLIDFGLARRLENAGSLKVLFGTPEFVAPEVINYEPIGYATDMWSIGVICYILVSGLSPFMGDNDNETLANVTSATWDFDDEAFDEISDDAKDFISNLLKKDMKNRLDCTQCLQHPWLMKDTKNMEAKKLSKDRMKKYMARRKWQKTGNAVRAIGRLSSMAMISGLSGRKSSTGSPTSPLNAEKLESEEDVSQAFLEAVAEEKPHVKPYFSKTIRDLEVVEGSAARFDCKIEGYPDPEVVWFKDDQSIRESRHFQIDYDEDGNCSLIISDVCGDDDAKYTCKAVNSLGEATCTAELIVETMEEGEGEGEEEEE
Sequence of Phosphodiesterase I, 3',5'-cyclic-nucleotide-specific (PDE) (bovine) (P14100 whole entry): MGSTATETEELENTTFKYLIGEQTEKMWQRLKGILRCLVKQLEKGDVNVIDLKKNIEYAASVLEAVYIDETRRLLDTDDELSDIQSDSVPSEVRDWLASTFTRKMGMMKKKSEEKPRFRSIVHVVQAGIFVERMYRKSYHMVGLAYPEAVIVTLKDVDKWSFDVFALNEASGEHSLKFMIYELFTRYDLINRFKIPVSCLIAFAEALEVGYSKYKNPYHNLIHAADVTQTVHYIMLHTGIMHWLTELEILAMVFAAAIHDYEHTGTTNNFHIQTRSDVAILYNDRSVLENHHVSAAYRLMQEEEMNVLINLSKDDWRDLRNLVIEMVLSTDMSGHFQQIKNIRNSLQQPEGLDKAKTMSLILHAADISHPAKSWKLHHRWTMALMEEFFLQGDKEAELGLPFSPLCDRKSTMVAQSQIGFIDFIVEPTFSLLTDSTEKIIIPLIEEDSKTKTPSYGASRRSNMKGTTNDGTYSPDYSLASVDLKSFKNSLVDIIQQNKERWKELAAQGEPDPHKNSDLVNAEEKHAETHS

Substance “Human recombinant calmodulin (CaM) (from UniProt P0DP23 1-149) (natural protein)” yielded an activation of PDE activity (mant-cGMP hydrolysis, 25°C, 150 nmol/L CaM, 6.5 nmol/L PDE, 1 mmol/L CaCl2), fold over the basal activity in test [1] of 2 fold. In addition, in test [2], the activation of CaN phosphatase activity (PNPP dephosphorylation) by CaM, fold over the basal activity was 2.34 fold and the activation of CaN phosphatase activity (PNPP dephosphorylation, 28°C) against the CaM concentration, EC50 was found to be 0.67 nM. In test [3], the activation of MLCK kinase activity (ADP-Glo luminescence, room temperature, 0.5 mmol/L CaCl2) against the CaM concentration, EC50 is 5.6 nM.
